This is an account of results in patent publication US7482133B2, “Catalytic domains of β(1,4)-galactosyltransferase I having altered donor and acceptor specificities, domains that promote in vitro protein folding, and methods for their use” (The United States of America as represented by the …, priority 2003, dated 2009).

Series [1] in a line: β4Gal-T1 enzyme assay of in vitro folded CD and SRCD proteins. To be noted: folded under condition I. The format is biochemical. On the procedure: β4Gal-T1 Enzyme Assays: The in vitro assay for β4Gal-T1 enzyme activity was performed as described (Boeggeman et al., Glycobiology, 12:395-407 (2002)). The ^3H-labeled-UDP-Gal was used as sugar donor and GlcNAc as the sugar acceptor. A reaction without GlcNAc was used as a control.
Binding of recombinant proteins to UDP-affinity column: UDP-agarose was used to bind the active proteins at 4° C. Columns containing 1 ml bed volume of UDP-agarose were pre-equilibrated with 10 ml of 25 mM cacodylic buffer, pH 7.6, containing 25 mM MnCl2. The renatured protein solutions (0.5 mg) were adjusted to the pre-equilibration buffer conditions and applied to the columns. After loading the sample, the pass-through was re-cycled. It was then analyzed for the unbound protein by SDS-PAGE. The columns were washed 3× with 1-ml portions of equilibration buffer. The bound protein was eluted with the elution buffer consisting of 25 mM cacodylic buffer, pH 7.6, 25 mM EDTA and 1 M NaCl. Fractions of 0.5 ml were collected from the columns, and aliquots were analysed by SDS-PAGE. For enzymatic analysis the appropriate fractions were pooled and dialysed against 50 mM Tris-HCl pH 8.0 at 4° C. […]

Series [2] is described as follows: Stability of the folded recombinant proteins. It counts as physicochemical. To be noted: after folding and purification from inclusion bodies. On the procedure: Mutation of the stem region of bovine β4Gal-T1 to inhibit proteolysis: The wild-type bovine SRCDβ4Gal-T1, which has Ser at position 96, was expressed in E. coli. […] The protein was electroblotted to polyvinylidene difluoride membrane, and the N-terminal sequence of the cleaved fragment was determined by Edman degradation at the Protein Chemistry Laboratory, NCI-Frederick. The N-terminal sequence of the fragment was determined as SRAPSNLD (SEQ ID NO: 21). This corresponds to the cleavage at Ser96 within the sequence region KPR^96SRAPSNLD (SEQ ID NO: 22). To prevent this proteolytic digestion within the stem region, we now constructed a mutant substituting Ala in place of Ser96. This prevented the cleavage within the stem region of bovine β4Gal-T1 keeping the recombinant protein intact for a long period of time. Even though, the experimental results described in this study are with the mutant bovine S96A-SRCDβ4Gal-T1 (FIG. 3A), for the sake of convenience in abbreviation this protein is simply referred to as bovine SRCDβ4Gal-T1.

A short description of series [3]: Two-substrate kinetic constants, GalNAc-T reaction. It counts as biochemical. The source says:
(§1) Studies for Determining the Kinetic Constants: The true Km of the donor (KA) and of the acceptor (KB), the dissociation constant of the donor, Ki(a), and kcat were obtained using two-substrate analyses and the primary plots of five concentrations of donor (UDP-Gal or UDP-GalNAc) and five concentrations of acceptor, and the corresponding secondary plots of the intercepts and slopes. Initial rate conditions were linear with respect to time. A suitable range of donor and acceptor concentrations were chosen, which allowed an accurate Michaelis-Menten plot to be derived. The data were also analyzed for a general two-substrate system using the following equations (Zhang et al., Glycobiology, 9:815-822 (1999)) with the software EnzFitter, a Biosoft nonlinear curve-fitting program for Windows.
(§2) [formula] Here v is the initial velocity and the rate equation for sequential symmetrical initial velocity pattern associated with Equation 1, an ordered or random equilibrium mechanism in which substrate A dissociates well from the E-S complex with a dissociation constant of Ki(a). Equation 2 is for asymmetric initial velocity pattern for a double displacement or “ping-pong” mechanism. The kinetic parameters KA, KB, Ki(a), and Vmax, were obtained from the fitted curves using the above rate equations. The graphical method and EnzFitter program gave very similar kinetic parameters. In the N-acetylgalactosamine transferase (GalNAc-T) assay, the maximum substrate concentrations used for UDP-GalNAc and GlcNAc were 1 and 200 mM, respectively. However, in the galactose transferase (Gal-T) assay, because of the limited solubility of GlcNAc in water, the concentration of GlcNAc was limited to no more than […] (which is 2-fold higher than its Km value), whereas up to 300 μM UDP-Gal were used.

Series [4] in a line: GalNAc-T activity in absence and presence of LA, acceptor Glucosamine. The format is biochemical. Conditions: acceptor Glucosamine 100 mM, 500 μM UDP-GalNAc, 37° C., 10 minutes. On the procedure: (§3) Gal-T and GalNAc-T Enzyme Assays: The protein concentrations were measured using the Bio-Rad protein assay kit, based on the method of Bradford and further verified on SDS gel. […] The activities were measured using UDP-Gal or UDP-GalNAc as sugar nucleotide donors, and GlcNAc and Glc as the acceptor sugars. For the specific activity measurements, a 100-μl incubation mixture containing 50 mM β-benzyl-GlcNAc, 10 mM MnCl2, 10 mM Tris-HCl, pH 8.0, 500 μM UDP-Gal or UDP-GalNAc, 20 ng of Gal-T1, and 0.5 μCl of [^3H]UDP-Gal or [^3H]UDP-GalNAc was used for each Gal-T or GalNAc-T reaction. The incubation was carried out at 37° C. for 10 min. […] The column was washed successfully with 300, 400, and 500 μl of water, and the column flow-through was diluted with Biosafe scintillation fluid; radioactivity was measured with a Beckman counter. A reaction without the acceptor sugar was used as a control. […]

A short description of series [5]: Two-substrate kinetic constants, Gal-T reaction. The format is biochemical.
Description: as §1, §2

Series [6] is described as follows: GalNAc-T specific activity assay. It counts as biochemical. On the procedure:
(§4) For example, the galactose and N-acetylgalactosyltransferase activity of β(1,4)-galactosyltransferase I can be determined using the following assay conditions. […], 10 mM MnCl2, 10 mM Tris-HCl (pH 8.0), 500 μM UDP-Gal or UDP-GalNAc, and 20 ng of β(1,4)-galactosyltransferase I can be incubated at 37° C. for 10 minutes to promote coupling of a donor sugar to an acceptor sugar. While these conditions are provided as an example, it is understood that many other conditions may be used to chemically link a donor to an acceptor using the altered catalytic domains of the invention.
(§5) Gal-T and GalNAc-T Enzyme Assays: The protein concentrations were measured using the Bio-Rad protein assay kit, based on the method of Bradford and further verified on SDS gel. […] The activities were measured using UDP-Gal or UDP-GalNAc as sugar nucleotide donors, and GlcNAc and Glc as the acceptor sugars. For the specific activity measurements, […], 10 mM MnCl2, 10 mM Tris-HCl, pH 8.0, 500 μM UDP-Gal or UDP-GalNAc, 20 ng of Gal-T1, and 0.5 μCl of [^3H]UDP-Gal or [^3H]UDP-GalNAc was used for each Gal-T or GalNAc-T reaction. The incubation was carried out at 37° C. for 10 min. […] The column was washed successfully with 300, 400, and 500 μl of water, and the column flow-through was diluted with Biosafe scintillation fluid; radioactivity was measured with a Beckman counter. A reaction without the acceptor sugar was used as a control. A similar assay was carried out to measure the GalNAc-T activity with Glc and other acceptors in the presence of 50 μM bovine LA (Sigma).

Series [7] can be described thus: Gal-T specific activity assay. It counts as biochemical. To be noted: donor 500 μM; acceptor β-benzyl-GlcNAc 25 mM (10 mM for C342T); saturating conditions. As to the method: as §4, §5
A short description of series [8]: GalNAc-T activity in absence and presence of LA, acceptor GlcNAc. It counts as biochemical. To be noted: acceptor GlcNAc 100 mM, 500 μM UDP-GalNAc, 37° C., 10 minutes. On the procedure: as §3
The nature of series [9]: GalNAc-T activity in absence and presence of LA, acceptor Glc. It counts as biochemical. To be noted: for GalNAc-T activity: acceptor Glc 100 mM, 500 μM UDP-GalNAc, 37° C., 10 minutes. On the procedure:
as §3

Series [10] can be described thus: GlcNAc-T specific activity assay. The format is biochemical. To be noted: donor 500 μM; acceptor β-benzyl-GlcNAc 25 mM.
Where [11] appears, read: UDP-N-acetylgalactosamine → GlcNAc.

B1: human SRCDβ4Gal-T1: human stem region/catalytic domain β4Gal-T1, not mutated (protein, listed as Homo sapiens)
chain: RDLSRLPQLVGVSTPLQGGSNSAAAIGQSSGDLRTGGARPPPPLGASSQPRPGGDSSPVVDSGPGPASNLTSVPVPHTTALSLPACPEESPLLVGPMLIEFNMPVDLELVAKQ
Turning to B1, in series [1], the “specific activity after elution from UDP-agarose versus before loading” value is reported as 6 fold. The “stability against cleavage within the stem region” value in series [2] was “only after long periods of time”.

B2: Y289L_C342T: bovine Gal-T1 catalytic domain (residues 130-402), Tyr-289 exchanged with Leu, with Cys-342 to Thr mutation (protein)
chain: SLTACPEESPLLVGPMLIEFNIPVDLKLIEQQNPKVKLGGRYTPMDCISPHKVAIIILFRNRQEHLKYWLYYLHPMVQRQQLDYGIYVINQAGESMFNRAKLLNVGFKEALKDYDYNCFVFSDVDLIPMNDHNTYRCFSQPRHISVAMDKFGFSLPYVQLFGGVSALSKQQFLSINGFPNNYWGWGGEDDDIYNRLAFRGMSVSRPNAVIGKTRMIRHSRDKKNEPNPQRFDRIAHTKETMLSDGLNSLTYMVLEVQRYPLYTKITVDIGTPS
As to B2, the “catalytic constant (kcat), fold higher” value in series [3] (GalNAc reaction) is 3-5 fold. Further, the “KA (true Km of the donor), GalNAc-T” value in [3] (setting [11]) was 854 (8) μM. In series [3] (setting [11]), the “KB (true Km of the acceptor), GalNAc-T” value was 51 (1) mM. In series [3] (setting [11]), the “Kcat., GalNAc-T” value was 4.0. Also, the GalNAc-T activity is reported as 5.0 pmol/min/ng in [4] (+LA 55 μM); 1.8 pmol/min/ng in [4] (−LA); 3.3 pmol/min/ng in series [8] (+LA 55 μM); 31.3 pmol/min/ng in series [8] (−LA); 34.8 pmol/min/ng in series [9] (+LA 55 μM); 2.6 pmol/min/ng in series [9] (−LA). In [5] (Gal-T1 reaction), the “catalytic constant (kcat) relative to wild type” value was “comparable with the wild type”. In series [5] (Gal-T reaction), the “Km for the acceptor relative to wild-type Gal-T1” value is roughly 20 fold. Besides, in series [5] (UDP-galactose → GlcNAc), the “KA (true Km of the donor), Gal-T” value was 75 (1) μM. In series [5] (UDP-galactose → GlcNAc), the KB (true Km of the acceptor), Gal-T was determined as 198 mM. The molecule also yielded a Kcat., Gal-T in series [5] (UDP-galactose → GlcNAc, unit assumed) of 8.5 s⁻¹. Further, in series [6] (comparison in words (Table III, FIG. 1)), the “galactose transferase versus N-acetylgalactosyltransferase activity” value is “equally strong galactose transferase and N-acetylgalactosyltransferase activities”. For the same molecule, the “UDP-GalNAc → GlcNAc GalNAc-T activity” value in series [6] (donor 500 μM, acceptor β-benzyl-GlcNAc 25 mM) was 27.3 pmol/min/ng. In addition, the “UDP-galactose → GlcNAc Gal-T activity” value in series [7] came out at 16.2 pmol/min/ng. The “acceptor preference of GalNAc transfer” value in [9] (in the presence of LA) is reported as “transfer GalNAc preferably to Glc rather than to GlcNAc”. The “UDP-GlcNAc → GlcNAc GlcNAc-T activity” value in series [10] worked out at 8.2 pmol/min/ng.
